Drawing on patent publication US20190367620A1 (Merck KGaA, published 2019), this text covers ΔΔGmut and Kd for 1 molecule.

In assay [1] the target is T1, FGFR1 D2 point mutant L53A (human, UniProt P11362 22-254).
T1 chain: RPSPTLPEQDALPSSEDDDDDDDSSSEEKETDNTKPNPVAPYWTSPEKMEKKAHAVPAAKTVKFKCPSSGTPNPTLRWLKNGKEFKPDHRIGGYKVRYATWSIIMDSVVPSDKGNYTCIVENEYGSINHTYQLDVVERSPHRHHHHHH
The assay can be described thus: SPR; free energy change relative to wild-type D2. As to the method: (§1) Binding affinities of anti-FGFR1 antibodies to FGFR1 were measured by Surface Plasmon Resonance (SPR) using a GE Healthcare BIAcore 4000 instrument as follows. Goat anti-human Fc antibody (Jackson ImmunoResearch Laboratories #109-005-098) was first immobilized on BIAcore carboxymethylated dextran CM5 chip using direct coupling to free amino groups following the procedure described by the manufacturer. Antibodies were then captured on the CM5 biosensor chip to achieve approximately 200 response units (RU). Binding measurements were performed using the running HBS-EP+ buffer. A 2-fold dilution series of His-tagged FGFR1 proteins were injected at a flow rate of 30 μl/min at 25° C. Association rates (kₒₙ, per mol/s) and dissociation rates (koff, per s) were calculated using a simple 1:1 Langmuir binding model (Biacore 4000 Evaluation Software). The equilibrium dissociation constant (KD, mol) was calculated as the ratio of koff/kₒₙ.
(§2) To obtain a finer, residue-level mapping of the epitope and to complement the HD exchange data, molecular modelling and manual inspection of the crystal structure of FGFR1 [(Beenken et al. 2012); PDB record 3OJV] was used to select solvent exposed residues within and around the epitope identified by HD exchange. The selected residues were mutated either to alanine (large to small) or to glycine if the selected residue was alanine. In total 35 point mutants were designed, expressed and purified in HEK cells, and tested for binding to mAb #A08 using surface plasmon resonance as described in Example 1.8. The affinity of the antibody for wild-type and each mutant was determined and used to calculate the contribution of each epitope residue to the binding energy.
(§3) Variant were compared to wild-type D2. The change in the Gibbs free energy of binding of mutant relative to the wild-type D2 construct (ΔΔGₘᵤₜ) was derived from the ratio of the wild-type and mutant KD.
Background: In SPR one partner is held on a chip, and binding of the other changes the refractive index at the surface.

The target of assay [2] is T2, FGFR1 D2 point mutant A99G (human, UniProt P11362 22-254).
T2 chain: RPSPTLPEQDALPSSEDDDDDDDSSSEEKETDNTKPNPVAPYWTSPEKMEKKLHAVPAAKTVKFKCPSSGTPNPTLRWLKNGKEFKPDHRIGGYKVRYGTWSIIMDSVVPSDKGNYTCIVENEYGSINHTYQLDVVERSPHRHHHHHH
As to the kind of experiment: SPR; free energy change relative to wild-type D2. The procedure:
as §1, §2, §3

Assay [3] deals with T3, FGFR1 D2 point mutant V56A (human, UniProt P11362 22-254).
T3 chain: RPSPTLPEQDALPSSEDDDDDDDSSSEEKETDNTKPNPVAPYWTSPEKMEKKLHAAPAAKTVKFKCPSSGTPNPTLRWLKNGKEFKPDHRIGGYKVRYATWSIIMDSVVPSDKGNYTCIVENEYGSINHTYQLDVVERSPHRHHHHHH
The assay can be described thus: SPR; free energy change relative to wild-type D2. The procedure:
as §1, §2, §3

In assay [4] the target is T4, FGFR1 D2 point mutant K51A (human, UniProt P11362 22-254).
T4 chain: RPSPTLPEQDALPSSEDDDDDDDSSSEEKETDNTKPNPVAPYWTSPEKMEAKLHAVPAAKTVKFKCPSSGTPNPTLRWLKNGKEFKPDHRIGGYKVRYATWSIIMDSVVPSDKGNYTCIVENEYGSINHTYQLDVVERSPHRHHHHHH
The assay can be described thus: SPR; free energy change relative to wild-type D2. The procedure:
as §1, §2, §3

Assay [5] has as its target T5, FGFR1 D2 point mutant Y98A (human, UniProt P11362 22-254).
T5 chain: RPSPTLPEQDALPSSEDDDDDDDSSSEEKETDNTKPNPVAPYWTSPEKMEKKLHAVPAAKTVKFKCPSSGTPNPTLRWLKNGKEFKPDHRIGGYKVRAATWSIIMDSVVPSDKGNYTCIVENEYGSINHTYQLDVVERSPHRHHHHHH
The assay can be described thus: SPR; free energy change relative to wild-type D2. The procedure:
as §1, §2, §3

The target of assay [6] is T6, FGFR1 D2 point mutant E50A (human, UniProt P11362 22-254).
T6 chain: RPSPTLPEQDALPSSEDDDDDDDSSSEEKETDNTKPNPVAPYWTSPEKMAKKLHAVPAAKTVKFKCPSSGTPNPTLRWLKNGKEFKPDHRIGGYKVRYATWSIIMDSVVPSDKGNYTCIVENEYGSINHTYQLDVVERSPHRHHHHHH
The assay can be described thus: SPR; free energy change relative to wild-type D2. As to the method: as §1, §2, §3

Assay [7] deals with T7, ratFGFR1a-IIIc (rat, UniProt Q04589 22-376).
T7 construct: Bought, His6 tag; also called rat FGFR1a-IIIc His6-tagged
T7 sequence (looked up): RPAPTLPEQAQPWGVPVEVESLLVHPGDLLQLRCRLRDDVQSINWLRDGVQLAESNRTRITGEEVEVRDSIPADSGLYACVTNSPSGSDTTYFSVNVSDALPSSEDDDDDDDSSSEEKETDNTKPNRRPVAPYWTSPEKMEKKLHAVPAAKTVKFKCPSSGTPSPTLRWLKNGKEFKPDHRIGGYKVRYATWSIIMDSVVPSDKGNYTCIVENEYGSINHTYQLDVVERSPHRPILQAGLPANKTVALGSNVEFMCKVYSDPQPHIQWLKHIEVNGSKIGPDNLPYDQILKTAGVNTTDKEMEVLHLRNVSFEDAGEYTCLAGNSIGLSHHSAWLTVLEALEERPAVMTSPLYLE
As to the kind of experiment: SPR (Biacore 4000), antibody captured, His-tagged FGFR1 injected; no unit in the table, nM inferred from paragraph 90. The procedure: as §1

The target of assay [8] is T8, human FGFR1b-IIIc extracellular domain with a HIS tag (human, UniProt P11362 22-376).
T8 construct: also called huFGFR1b-IIIc; hFGFR1b-IIIc
T8 sequence: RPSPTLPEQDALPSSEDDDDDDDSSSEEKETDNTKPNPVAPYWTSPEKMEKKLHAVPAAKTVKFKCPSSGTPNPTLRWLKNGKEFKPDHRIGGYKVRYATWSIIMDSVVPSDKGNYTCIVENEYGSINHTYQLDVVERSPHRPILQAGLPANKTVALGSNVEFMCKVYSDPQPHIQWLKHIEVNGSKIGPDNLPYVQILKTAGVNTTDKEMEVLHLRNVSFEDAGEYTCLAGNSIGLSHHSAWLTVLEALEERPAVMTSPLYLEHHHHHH
The description is as above. The procedure: as §1

B1: mAb #A08 (antibody, V domains shown)
VH: EVQLQESGPGLVKPSGTLSLTCAVSGGSISSNNWWSWVRQPPGKGLEWIGEIYHSGSTSYNPSLKSRVTISVDKSKNQFSLKLNSVTAADTAVYYCARGTDWFDPWGQGTLVTVSS
VL: QAVLTQPPSVSVAPGQTARITCGGNNIGSESVHWYQQKPGQAPVLVVYDDSDRPSGIPERFSGSNSGNTATLTISRVEAGDEADYYCQVWDSTSDHRVFGGGTKLTVL
notes: Only variable domains are tied to the name mAb #A08 (hit); also called #A08 hit; mAb #08
By Kd is commonly meant the constant that tells how readily two partners part at equilibrium. A high value points to lower affinity. B1: the ΔΔGmut in assay [1] was 0.25 kcal/mol; in assay [2], -0.05 kcal/mol; in assay [3], 0.2 kcal/mol; in assay [4] it was 0.27 kcal/mol; in assay [5], -0.04 kcal/mol; in assay [6], 0.02 kcal/mol. Moreover, the Kd in assay [7] worked out at 2.2 nM; in assay [8], 0.017 nM.
